The target of data set [1] is pro-HGF (single-chain hepatocyte growth factor), P14210.
The target in a further data set is T1, Lys-plasminogen, P00747.
T1 chain: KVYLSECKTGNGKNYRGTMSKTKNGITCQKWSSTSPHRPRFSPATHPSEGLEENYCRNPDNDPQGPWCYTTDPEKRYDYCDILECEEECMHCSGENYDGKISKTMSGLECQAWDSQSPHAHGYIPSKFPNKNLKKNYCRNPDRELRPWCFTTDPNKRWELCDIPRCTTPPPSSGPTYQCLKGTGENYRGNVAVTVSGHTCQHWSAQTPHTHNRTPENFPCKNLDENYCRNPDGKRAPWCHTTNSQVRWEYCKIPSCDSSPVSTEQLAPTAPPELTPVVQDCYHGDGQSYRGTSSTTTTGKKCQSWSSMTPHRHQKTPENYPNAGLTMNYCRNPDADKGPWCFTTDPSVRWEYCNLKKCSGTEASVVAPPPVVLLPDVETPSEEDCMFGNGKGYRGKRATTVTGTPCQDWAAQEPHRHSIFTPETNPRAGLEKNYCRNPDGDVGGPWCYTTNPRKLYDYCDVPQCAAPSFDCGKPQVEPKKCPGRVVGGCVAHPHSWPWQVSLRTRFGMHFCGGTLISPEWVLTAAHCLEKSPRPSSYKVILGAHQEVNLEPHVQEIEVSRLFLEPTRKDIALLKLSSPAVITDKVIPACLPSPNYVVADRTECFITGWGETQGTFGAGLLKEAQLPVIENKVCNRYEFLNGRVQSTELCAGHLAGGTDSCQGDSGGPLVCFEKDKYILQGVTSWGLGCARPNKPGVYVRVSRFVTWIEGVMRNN

Sequence of pro-HGF (single-chain hepatocyte growth factor), P14210 (P14210 32-728): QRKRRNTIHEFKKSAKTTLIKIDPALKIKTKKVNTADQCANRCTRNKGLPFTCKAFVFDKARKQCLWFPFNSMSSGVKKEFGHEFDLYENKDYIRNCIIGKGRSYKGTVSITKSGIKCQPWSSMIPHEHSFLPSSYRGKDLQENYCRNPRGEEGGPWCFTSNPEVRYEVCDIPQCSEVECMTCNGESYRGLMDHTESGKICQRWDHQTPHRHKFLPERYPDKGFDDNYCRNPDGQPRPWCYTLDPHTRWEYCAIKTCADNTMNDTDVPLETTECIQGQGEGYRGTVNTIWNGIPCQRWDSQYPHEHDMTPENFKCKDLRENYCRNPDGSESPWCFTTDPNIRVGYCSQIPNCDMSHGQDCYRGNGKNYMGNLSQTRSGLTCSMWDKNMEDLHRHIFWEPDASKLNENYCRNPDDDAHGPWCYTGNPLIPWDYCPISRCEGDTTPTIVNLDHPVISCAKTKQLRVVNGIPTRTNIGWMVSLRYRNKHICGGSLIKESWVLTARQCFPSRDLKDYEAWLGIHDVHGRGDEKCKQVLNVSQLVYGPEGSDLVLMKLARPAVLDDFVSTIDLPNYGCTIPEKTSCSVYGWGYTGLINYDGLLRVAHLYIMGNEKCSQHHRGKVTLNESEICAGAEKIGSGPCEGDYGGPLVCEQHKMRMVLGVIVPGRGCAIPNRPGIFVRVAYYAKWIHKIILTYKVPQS

Regarding VQLSPDLLATLPEPASPGRQACGRRHKKRTFLRPR [HGFA (hepatocyte growth factor activator) comprising residues Val373-Arg407], in data set [1], the “enzyme concentration achieving complete conversion of 125I-labelled pro-HGF into two-chain HGF (4 h, 37° C., SDS-PAGE)” value is listed as “both enzymes achieving complete conversion of pro-HGF at a concentration of 4-13 nM”.

B1: soluble form of hepsin encompassing the entire extracellular domain (Arg45-Leu417) and a C-terminal His8 tag (protein)
chain 1: RSDQEPLYPVQVSSADARLMVFDKTEGTWRLLCSSRSNARVAGLSCEEMGFLRALTHSELDVRTAGANGTSGFFCVDEGRLPHTQRLLEVISVCDCPRGRFLAAICQDCGRRKLPVDR
chain 2: not shown
Consider B1, for which the “enzyme concentration achieving complete conversion of 125I-labelled pro-HGF into two-chain HGF (4 h, 37° C., SDS-PAGE)” value in data set [1] was “both enzymes achieving complete conversion of pro-HGF at a concentration of 4-13 nM”.

B2: tissue-type plasminogen activator (t-PA) (protein)
chain: SYQVICRDEKTQMIYQQHQSWLRPVLRSNRVEYCWCNSGRAQCHSVPVKSCSEPRCFNGGTCQQALYFSDFVCQCPEGFAGKCCEIDTRATCYEDQGISYRGTWSTAESGAECTNWNSSALAQKPYSGRRPDAIRLGLGNHNYCRNPDRDSKPWCYVFKAGKYSSEFCSTPACSEGNSDCYFGNGSAYRGTHSLTESGASCLPWNSMILIGKVYTAQNPSAQALGLGKHNYCRNPDGDAKPWCHVLKNRRLTWEYCDVPSCSTCGLRQYSQPQFRIKGGLFADIASHPWQAAIFAKHRRSPGERFLCGGILISSCWILSAAHCFQERFPPHHLTVILGRTYRVVPGEEEQKFEVEKYIVHKEFDDDTYDNDIALLQLKSDSSRCAQESSVVRTVCLPPADLQLPDWTECELSGYGKHEALSPFYSERLKEAHVRLYPSSRCTSQHLLNRTVTDNMLCAGDTRSGGPQANLHDACQGDSGGPLVCLNDGRMTLVGIISWGLGCGQKDVPGVYTKVTNYLDWIRDNMRP
Take B2: the “percent of plasminogen zymogen cleaved after 0.5 h (40 nM t-PA, SDS-PAGE)” value in the data set with Lys-plasminogen, P00747 is “t-PA efficiently processed plasminogen with about 50% of zymogen already cleaved after 0.5 h”.

For the origin of these results see US20100209956.
